# Laboratory results as given in patent US20260242478A1 (published 2026).
# Where no end group is shown, it is not given here.
# B1: Phage-2091 (peptide)
# peptide: ETRWCVPEWMCYGI
# modifications: cysteine pairing not given here; also: fused to phage pIII, pIII sequence and linker not given here
# notes: Clonal phage of the Peptide-180 library
# B2: Phage-2088 (peptide)
# peptide: VEKWCIPQWMCAEM
# modifications: cysteine pairing not given here; also: fused to phage pIII, pIII sequence and linker not given here
# notes: as for B1
# B3: Phage-2089 (peptide)
# peptide: VEKWCIPTWMCQAM
# modifications: cysteine pairing not given here; also: fused to phage pIII, pIII sequence and linker not given here
# notes: as for B1
# B4: Phage-2090 (peptide)
# peptide: IVKWCVPEWMCEGT
# modifications: cysteine pairing not given here; also: fused to phage pIII, pIII sequence and linker not given here
# notes: as for B1
# B5: Phage-2087 (peptide)
# peptide: FEKWCIPSWMCSGP
# modifications: cysteine pairing not given here; also: fused to phage pIII, pIII sequence and linker not given here
# notes: as for B1
# B6: Phage-2075 (peptide-180 library clone, SEQ ID NO: 2391) (peptide)
# peptide: ADKWCTPTWMCQWL
# notes: Tested as clonal phage supernatant; not shown: pIII filament protein of the bacteriophage to which the peptide is fused for display
# B7: Phage-2078 (peptide-180 library clone, SEQ ID NO: 2394) (peptide)
# peptide: IEKWCIPEWMCEYT
# notes: as for B6
# B8: Phage-2073 (peptide-180 library clone, SEQ ID NO: 2389) (peptide)
# peptide: VAKMCIPSWMCAEQ
# modifications: cysteine pairing not given here; also: fused to phage pIII, pIII sequence and linker not given here
# notes: as for B6
# B9: Phage-2077 (peptide-180 library clone, SEQ ID NO: 2393) (peptide)
# peptide: AEKLCIPPWMCMLS
# notes: as for B6
# B10: Phage-2082 (peptide-180 library clone, SEQ ID NO: 2398) (peptide)
# peptide: PEKLCIPDWMCHWD
# notes: as for B6
# B11: Phage-2072 (peptide-180 library clone, SEQ ID NO: 2388) (peptide)
# peptide: QGNWCKPAWMCSGF
# modifications: cysteine pairing not given here; also: fused to phage pIII, pIII sequence and linker not given here
# notes: as for B6
# B12: Phage-2076 (peptide-180 library clone, SEQ ID NO: 2392) (peptide)
# peptide: ADKWCIPEWMCEMN
# notes: as for B6
# B13: Phage-2084 (peptide-180 library clone, SEQ ID NO: 2400) (peptide)
# peptide: SEHWCVPSWMCYGF
# notes: as for B6
# B14: Phage-2080 (peptide-180 library clone, SEQ ID NO: 2396) (peptide)
# peptide: WDNWCTPLWMCQGF
# notes: as for B6
# B15: Phage-2081 (peptide-180 library clone, SEQ ID NO: 2397) (peptide)
# peptide: QVNWCIPPWMCAGL
# modifications: cysteine pairing not given here; also: fused to phage pIII, pIII sequence and linker not given here
# notes: as for B6
# B16: Phage-2086 (peptide-180 library clone, SEQ ID NO: 2402) (peptide)
# peptide: VHQMCQPWWMCWET
# notes: as for B6
# B17: Phage-2079 (peptide-180 library clone, SEQ ID NO: 2395) (peptide)
# peptide: DWRLCIPEWMCERL
# notes: as for B6
# B18: Phage-2083 (peptide-180 library clone, SEQ ID NO: 2399) (peptide)
# peptide: WSNWCTPRWVCKTI
# notes: as for B6
# B19: Phage-2085 (peptide-180 library clone, SEQ ID NO: 2401) (peptide)
# peptide: ESKWCTPPWMCMTD
# notes: as for B6
# B20: Phage-2074 (peptide-180 library clone, SEQ ID NO: 2390) (peptide)
# peptide: VGNWCKPAWMCEMM
# notes: as for B6
# B21: Phage-2069 (peptide)
# peptide: YDHWCTPMWMCHGM
# notes: tested as crude clonal phage supernatant
# B22: Phage-2065 (peptide)
# peptide: AAKMCVPWWMCEVM
# notes: as for B21
# B23: Phage-2064 (peptide)
# peptide: YLHSCTPAWMCTGF
# notes: as for B21
# B24: Phage-2061 (peptide)
# peptide: EMKWCIPAWMCQSH
# notes: as for B21
# B25: Phage-2070 (peptide)
# peptide: FEMWCTPSWMCDGF
# notes: as for B21
# B26: Phage-2071 (peptide)
# peptide: IGPWCIPPWMCDHR
# notes: as for B21
# B27: Phage-2068 (peptide)
# peptide: SEKWCIPDWMCQVW
# notes: as for B21
# B28: Phage-2067 (peptide)
# peptide: PVKWCIPSWMCSVD
# notes: as for B21
# B29: Phage-2060 (peptide)
# peptide: EHIWCKPDWMCSGF
# notes: as for B21
# B30: Phage-2066 (peptide)
# peptide: VSIMCKPMWMCSGT
# notes: as for B21
# B31: Phage-2062 (peptide)
# peptide: EGKWCTPIWMCQGF
# notes: as for B21
# B32: Phage-2063 (peptide)
# peptide: PIKLCTPSWMCIGF
# notes: as for B21
# B33: Phage-2059 (peptide)
# peptide: DTMRCVPEWMCTGF
# notes: as for B21
# Biological target: T1, Anti-PSMA Fab (SEQ ID NOs: 19, 20)
# T1 construct: In the phage ELISA the Fab was biotinylated and captured on neutravidin coated plates; also called 006 PSMA Fab
# Assay: phage binding ELISA; biotinylated PSMA Fab captured on neutravidin plate, bound phage detected with anti-M13-HRP
# Procedure: (§1) Clonal phage were harvested as crude supernatants and screened via standard ELISAs. […] Prior to the addition of clonal phage. wells were incubated with blocking buffer and PSMA antigen or blocking buffer alone. Without washing or aspirating, clonal phage supernatants were then added to the wells and incubated for a short time. Wells were then washed followed by detection of bound phage using a horse radish conjugated anti-M13 antibody.
row,Binder,"Anti-PSMA Fab (SEQ ID NOs: 19, 20) signal"
1,B1,1.74
2,B2,1.74
3,B3,1.74
4,PDHWCIPSWMCMSQ (Clonal phage of the Peptide-180 library) [Phage-2096],1.74
5,WGKLCIPEWMCTTQ (Clonal phage of the Peptide-180 library) [Phage-2095],1.74
6,QGIMCIPEWMCSAI (Clonal phage of the Peptide-180 library) [Phage-2097],1.73
7,VETWCTPRWMCEGF (Clonal phage of the Peptide-180 library) [Phage-2093],1.74
8,VVHWCIPSWMCTEN (Clonal phage of the Peptide-180 library) [Phage-2094],1.74
9,FEKWCIPAWMCAAV (Clonal phage of the Peptide-180 library) [Phage-2092],1.74
10,B4,1.74
11,IPKLCKPSWMCLFY (Clonal phage of the Peptide-180 library) [Phage-2098],1.73
12,B5,1.75

# Biological target: T2, Anti-PSMA Fab (SEQ ID NOs: 19, 20)
# T2 construct: In the phage ELISA the PSMA Fab was biotinylated and captured on neutravidin coated plates; also called 006 PSMA Fab
# Assay: phage binding ELISA; biotinylated PSMA Fab on neutravidin plate, clonal phage supernatant, anti-M13 HRP detection;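 further: wells were preincubated with blocking buffer either containing PSMA antigen or without it before crude phage supernatant was added, briefly incubated, then washed prior to detection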
# Procedure: as §1
row,Binder,"Anti-PSMA Fab (SEQ ID NOs: 19, 20) signal"
1,B6,1.76
2,B7,1.75
3,B8,1.76
4,B9,1.76
5,B10,1.75
6,B11,1.76
7,B12,1.76
8,B13,1.75
9,B14,1.75
10,B15,1.75
11,B16,1.75
12,B17,1.75
13,B18,1.75
14,B19,1.75
15,B20,1.76

# Biological target: T3, Anti-PSMA Fab (SEQ ID NOs: 19, 20)
# T3 construct: Biotinylated PSMA Fab captured on neutravidin coated plates in the phage ELISA; also called 006 PSMA Fab
# Assay: phage ELISA on captured PSMA Fab, wells pre-incubated with the competitor PSMA antigen
# Procedure: as §1
row,Binder,Anti-PSMA Fab signal in the presence of PSMA (phage binding ELISA)
1,B21,0.0688
2,B22,0.0753
3,B23,0.0668
4,B24,0.0858
5,B25,0.0932
6,B26,0.0893
7,B27,0.0929
8,B28,0.0738
9,B29,0.0871
10,B30,0.072
11,B31,0.143
12,B32,0.107
13,B33,0.066

# Biological target: T2, Anti-PSMA Fab (SEQ ID NOs: 19, 20)
# Assay: phage binding ELISA; PSMA Fab on plate pre-incubated with PSMA antigen as competitor, anti-M13 HRP detection;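 further: crude clonal phage supernatants added without washing to wells preincubated with PSMA in blocking buffer, compared with wells receiving blocking buffer only, then bound phage detected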
# Procedure: as §1
row,Binder,Anti-PSMA Fab signal in the presence of PSMA
1,B6,0.0745
2,B7,0.0826
3,B8,0.0548
4,B9,0.101
5,B10,0.0951
6,B11,0.0983
7,B12,0.0844
8,B13,0.0957
9,B14,0.0794
10,B15,0.0898
11,B16,0.0749
12,B17,0.0875
13,B18,0.0752
14,B19,0.0945
15,B20,0.0681

# Biological target: T3, Anti-PSMA Fab (SEQ ID NOs: 19, 20)
# Assay: phage ELISA; biotinylated PSMA Fab on neutravidin plate, bound phage detected with anti-M13-HRP;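 further: crude clonal phage supernatants added, without a wash, to wells pretreated with PSMA antigen in blocking buffer or with blocking buffer only, then briefly incubated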
# Procedure: as §1
row,Binder,Anti-PSMA Fab signal (phage binding ELISA)
1,B21,1.76
2,B22,1.77
3,B23,1.77
4,B24,1.77
5,B25,1.76
6,B26,1.76
7,B27,1.76
8,B28,1.76
9,B29,1.77
10,B30,1.77
11,B31,1.77
12,B32,1.77
13,B33,1.77

# Biological target: T1, Anti-PSMA Fab (SEQ ID NOs: 19, 20)
# Assay: phage binding ELISA on captured PSMA Fab, wells pre-incubated with PSMA antigen as competitor
# Procedure: as §1
row,Binder,Anti-PSMA Fab signal in the presence of PSMA
1,B1,0.0943
2,B2,0.0696
3,B3,0.0844
4,PDHWCIPSWMCMSQ (Clonal phage of the Peptide-180 library) [Phage-2096],0.0974
5,WGKLCIPEWMCTTQ (Clonal phage of the Peptide-180 library) [Phage-2095],0.0687
6,QGIMCIPEWMCSAI (Clonal phage of the Peptide-180 library) [Phage-2097],0.0664
7,VETWCTPRWMCEGF (Clonal phage of the Peptide-180 library) [Phage-2093],0.0881
8,VVHWCIPSWMCTEN (Clonal phage of the Peptide-180 library) [Phage-2094],0.0941
9,FEKWCIPAWMCAAV (Clonal phage of the Peptide-180 library) [Phage-2092],0.112
10,B4,0.0687
11,IPKLCKPSWMCLFY (Clonal phage of the Peptide-180 library) [Phage-2098],0.185
12,B5,0.097
